Assay results from publication PMC6743362.

Biological target: microtubules (MT fraction from mouse brain) (mouse (endogenous in mouse brain)) (UniProt P68369)
Experiment: co-sedimentation

Substance	MT-bound fraction	MT-unbound fraction
recombinant human tau lacking both PRR2 and MTBD (ΔPRR2-MTBD) (from UniProt P10636-6 1-383) (natural protein)	0.059	0.941
recombinant human tau lacking the proline-rich region 2 (ΔPRR2) (from UniProt P10636-6 1-383) (natural protein)	0.839	0.161
recombinant human tau, 0N4R variant (WT tau) (from UniProt P10636-6 1-383) (natural protein)	0.989	–
